Experimental findings from US20250154198A1, “PEPTIDE INHIBITORS OF INTERLEUKIN-23 RECEPTOR” (Zealand Pharma A/S, priority 2021, published 2025) are described below.

This experiment has as its target T1, human IL-23R endogenously expressed on DB cells (CRL-2289) (human, UniProt Q5VWK5 24-629).
T1 sequence (looked up): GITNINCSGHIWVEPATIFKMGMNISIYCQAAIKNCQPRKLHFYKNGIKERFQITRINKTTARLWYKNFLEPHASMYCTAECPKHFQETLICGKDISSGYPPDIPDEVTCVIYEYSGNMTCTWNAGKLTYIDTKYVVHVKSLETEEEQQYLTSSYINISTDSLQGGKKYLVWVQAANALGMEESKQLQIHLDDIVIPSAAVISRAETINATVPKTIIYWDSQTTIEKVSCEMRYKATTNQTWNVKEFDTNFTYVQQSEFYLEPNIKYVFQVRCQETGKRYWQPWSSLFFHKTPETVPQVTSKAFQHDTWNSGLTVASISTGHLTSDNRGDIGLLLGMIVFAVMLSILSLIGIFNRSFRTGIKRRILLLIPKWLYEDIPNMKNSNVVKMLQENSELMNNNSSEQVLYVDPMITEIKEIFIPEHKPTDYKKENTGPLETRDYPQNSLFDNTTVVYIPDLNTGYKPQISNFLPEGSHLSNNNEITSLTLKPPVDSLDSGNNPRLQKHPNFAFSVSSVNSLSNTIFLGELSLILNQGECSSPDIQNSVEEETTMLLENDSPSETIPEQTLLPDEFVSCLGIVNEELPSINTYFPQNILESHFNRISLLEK
The experiment can be described thus: cell-based or functional assay.

*1 amine or outer side, *2 acyl side, *3 side chain or, on linkers, in order; H or OH if unused. Bridges are numbered along the chain shown (N, C = ends). Primed or numbered codes have the meaning given here. Where no end group is shown, it is not given here. [ ]: non-standard residue; d: D form. 4‑Aminomethyl‑phenylacetyl = 4-aminomethyl-phenylacetyl unit, its amine closes the lactam, O=C(Cc1ccc(CN[*:1])cc1)[*:2]; 1,3‑dibromopropan‑2‑one = linker (CAS 816-39-7) joining two Cys as 1,3-dithio-propan-2-one bridge -SCH2C(=O)CH2S-; 1,3‑dibromopropan‑2‑one(3) = linker giving 1,3-dithio-propan-2-one bridge -SCH2C(=O)CH2S- between Cys; 4‑Aminomethyl‑phenylacetyl″ = N-terminal cap residue, O=C(Cc1ccc(CN[*:1])cc1)[*:2]; Pipz(1-CH2CO,4-CH2CH2NH) = O=C(CN1CCN(CCN[*:1])CC1)[*:2]; Trp(4-F) = N[C@@H](Cc1c[nH]c2cccc(F)c12)C(=O)O; Trp(6-F) = N[C@@H](Cc1c[nH]c2cc(F)ccc12)C(=O)O; Trp(7-F) = N[C@@H](Cc1c[nH]c2c(F)cccc12)C(=O)O; 2Nal = N[C@@H](Cc1ccc2ccccc2c1)C(=O)O; AEF = NCCOc1ccc(C[C@H](N)C(=O)O)cc1; 3Pal = N[C@@H](Cc1cccnc1)C(=O)O; 4Pal = N[C@@H](Cc1ccncc1)C(=O)O; αMeL = CC(C)C[C@](C)(N)C(=O)O; CH2COCH2 = O=C(C[*:1])C[*:2]; αMeV = CC(C)[C@](C)(N)C(=O)O; 3Amb = NCc1cccc(C(=O)O)c1; dDab = NCC[C@@H](N)C(=O)O; Orn = NCCC[C@H](N)C(=O)O; Dab = NCC[C@H](N)C(=O)O; Ahx = NCCCCCC(=O)O; βAla = NCCC(=O)O A value given as a limit tells only on which side of the number the result lay.

B1: Compound 123 (peptide)
peptide: [4‑Aminomethyl‑phenylacetyl″]S[Dab]WQE[AEF][2Nal][αMeL]E[Dab][3Pal]-NH2
modifications: lactam N-10, 3-6
SMILES: CC(C)C[C@]1(C)NC(=O)[C@H](Cc2ccc3ccccc3c2)NC(=O)[C@H](Cc2ccc(OCCN)cc2)NC(=O)[C@@H]2CCC(=O)NCC[C@H](NC(=O)[C@H](CO)NC(=O)Cc3ccc(cc3)CNC(=O)CC[C@@H](C(=O)N[C@@H](CCN)C(=O)N[C@@H](Cc3cccnc3)C(N)=O)NC1=O)C(=O)N[C@@H](Cc1c[nH]c3ccccc13)C(=O)N[C@@H](CCC(N)=O)C(=O)N2
B1: the “IC50 (pSTAT3)” value was 0.0253 nM.

B2: Compound 138 (peptide)
peptide: [4‑Aminomethyl‑phenylacetyl]SE[Trp(4-F)]Q[Dab][AEF][2Nal][αMeL]E[Dab]-NH2
modifications: lactam N-10, 3-6
SMILES: CC(C)C[C@]1(C)NC(=O)[C@H](Cc2ccc3ccccc3c2)NC(=O)[C@H](Cc2ccc(OCCN)cc2)NC(=O)[C@@H]2CCNC(=O)CC[C@H](NC(=O)[C@H](CO)NC(=O)Cc3ccc(cc3)CNC(=O)CC[C@@H](C(=O)N[C@@H](CCN)C(N)=O)NC1=O)C(=O)N[C@@H](Cc1c[nH]c3cccc(F)c13)C(=O)N[C@@H](CCC(N)=O)C(=O)N2
As for B2, the “IC50 (pSTAT3)” value came out at 39.4 nM.

B3: Compound 79 (peptide)
peptide: [3Amb]SCWQC[AEF][2Nal][αMeL]ER[4Pal]-NH2
modifications: lactam (positions not given here); linker 3-6 via CH2COCH2; not fully specified (bridges); printed as [(3-Aminomethyl)benzoyl](1c)*SC(2a)WQC(2a)[Y(2-aminoethoxy)][2-Nal][2-Me-Leu]E(1c)R[3-(4-Pyridyl)-Ala]-[NH2]
For B3, the “IC50 (pSTAT3)” value was found to be 21.3 nM.
Consider [4‑Aminomethyl‑phenylacetyl]SCWQC[AEF][Trp(6-F)][αMeL]E[Dab][3Pal]-NH2 (lactam N-10; linker 3-6 via 1,3‑dibromopropan‑2‑one(3)) [Compound 121], for which the “IC50 (pSTAT3)” value is 0.367 nM.

B4: Compound 84 (peptide)
peptide: Ac-KSCWQC[AEF][2Nal][αMeL]E[dR]-NH2
modifications: lactam 1-10; linker 3-6 via CH2COCH2
SMILES: CC(=O)N[C@H]1CCCCNC(=O)CC[C@@H](C(=O)N[C@H](CCCNC(=N)N)C(N)=O)NC(=O)[C@](C)(CC(C)C)NC(=O)[C@H](Cc2ccc3ccccc3c2)NC(=O)[C@H](Cc2ccc(OCCN)cc2)NC(=O)[C@@H]2CSCC(=O)CSC[C@H](NC(=O)[C@H](CO)NC1=O)C(=O)N[C@@H](Cc1c[nH]c3ccccc13)C(=O)N[C@@H](CCC(N)=O)C(=O)N2
As for B4, the “IC50 (pSTAT3)” value was determined as 12.5 nM.

B5: Compound 85 (peptide)
peptide: Ac-KTCWQC[AEF][2Nal][αMeL]E[dR]-NH2
modifications: lactam 1-10; linker 3-6 via CH2COCH2
SMILES: CC(=O)N[C@H]1CCCCNC(=O)CC[C@@H](C(=O)N[C@H](CCCNC(=N)N)C(N)=O)NC(=O)[C@](C)(CC(C)C)NC(=O)[C@H](Cc2ccc3ccccc3c2)NC(=O)[C@H](Cc2ccc(OCCN)cc2)NC(=O)[C@@H]2CSCC(=O)CSC[C@H](NC(=O)[C@H]([C@@H](C)O)NC1=O)C(=O)N[C@@H](Cc1c[nH]c3ccccc13)C(=O)N[C@@H](CCC(N)=O)C(=O)N2
For the molecule B5, the “IC50 (pSTAT3)” value is 8.54 nM.
In the case of [4‑Aminomethyl‑phenylacetyl]SCWQC[AEF][2Nal][αMeL]E[βAla]-NH2 (lactam N-10; linker 3-6 via 1,3‑dibromopropan‑2‑one(3)) [Compound 119] it was 16.7 nM; in that of [4‑Aminomethyl‑phenylacetyl″]SCWQC[AEF][2Nal][αMeL]E[dH]-NH2 (lactam N-10; linker 3-6 via 1,3‑dibromopropan‑2‑one(3)) [Compound 117], 11.3 nM.

B6: Compound 136 (peptide)
peptide: [4‑Aminomethyl‑phenylacetyl]SEWQ[Dab][AEF][2Nal][αMeV]E[Dab]-NH2
modifications: lactam N-10, 3-6
SMILES: CC(C)[C@]1(C)NC(=O)[C@H](Cc2ccc3ccccc3c2)NC(=O)[C@H](Cc2ccc(OCCN)cc2)NC(=O)[C@@H]2CCNC(=O)CC[C@H](NC(=O)[C@H](CO)NC(=O)Cc3ccc(cc3)CNC(=O)CC[C@@H](C(=O)N[C@@H](CCN)C(N)=O)NC1=O)C(=O)N[C@@H](Cc1c[nH]c3ccccc13)C(=O)N[C@@H](CCC(N)=O)C(=O)N2
In the case of B6, the “IC50 (pSTAT3)” value was 8.8 nM.
The result for cyclo(DSCWQCWWLR) (linker 3-6 via 1,3‑dibromopropan‑2‑one) [Compound 6] reads above 1 µM.

B7: Compound 126 (peptide)
peptide: [4‑Aminomethyl‑phenylacetyl]VEWQ[Dab][AEF][2Nal][αMeL]E[Dab]-NH2
modifications: lactam N-10, 3-6
SMILES: CC(C)C[C@]1(C)NC(=O)[C@H](Cc2ccc3ccccc3c2)NC(=O)[C@H](Cc2ccc(OCCN)cc2)NC(=O)[C@@H]2CCNC(=O)CC[C@H](NC(=O)[C@H](C(C)C)NC(=O)Cc3ccc(cc3)CNC(=O)CC[C@@H](C(=O)N[C@@H](CCN)C(N)=O)NC1=O)C(=O)N[C@@H](Cc1c[nH]c3ccccc13)C(=O)N[C@@H](CCC(N)=O)C(=O)N2
In the case of B7, the “IC50 (pSTAT3)” value came to 28 nM.
For [4‑Aminomethyl‑phenylacetyl]SCWQC[AEF][2Nal][αMeL]E[dR]-OH (lactam N-10; linker 3-6 via 1,3‑dibromopropan‑2‑one(3)) [Compound 108], the “IC50 (pSTAT3)” value stood at 10.6 nM.

B8: Compound 90 (peptide)
peptide: [Pipz(1-CH2CO,4-CH2CH2NH)]SCWQC[AEF][2Nal][αMeL]E[dR]-NH2
modifications: lactam (positions not given here); linker 3-6 via CH2COCH2; not fully specified (bridges); printed as [(4-(2-Aminoethyl)-piperazine-1-yl)-acetyl](1c)*SC(2a)WQC(2a)[Y(2-aminoethoxy)][2-Nal][2-Me-Leu]E(1c)[{d}R]-[NH2]
As for B8, the “IC50 (pSTAT3)” value stood at 15.8 nM.
The result for [4‑Aminomethyl‑phenylacetyl]SCWQC[AEF][2Nal][αMeL]E[dDab]((2-(trimethyl-2-aminoethoxy)ethoxy)propyl)-NH2 (lactam N-10; linker 3-6 via 1,3‑dibromopropan‑2‑one(3)) [Compound 109] reads 21.5 nM.

B9: Compound 139 (peptide)
peptide: [4‑Aminomethyl‑phenylacetyl]SE[Trp(7-F)]Q[Dab][AEF][2Nal][αMeL]E[Dab]-NH2
modifications: lactam N-10, 3-6
SMILES: CC(C)C[C@]1(C)NC(=O)[C@H](Cc2ccc3ccccc3c2)NC(=O)[C@H](Cc2ccc(OCCN)cc2)NC(=O)[C@@H]2CCNC(=O)CC[C@H](NC(=O)[C@H](CO)NC(=O)Cc3ccc(cc3)CNC(=O)CC[C@@H](C(=O)N[C@@H](CCN)C(N)=O)NC1=O)C(=O)N[C@@H](Cc1c[nH]c3c(F)cccc13)C(=O)N[C@@H](CCC(N)=O)C(=O)N2
Consider B9, for which the “IC50 (pSTAT3)” value was found to be 30.2 nM.
[4‑Aminomethyl‑phenylacetyl]SCWQC[AEF][2Nal][αMeL]E[dQ]-NH2 (lactam N-10; linker 3-6 via 1,3‑dibromopropan‑2‑one(3)) [Compound 115]: the “IC50 (pSTAT3)” value was determined as 18.9 nM.

B10: Compound 87 (peptide)
peptide: [Ahx]SCWQC[AEF][2Nal][αMeL]E[dR]-NH2
modifications: lactam (positions not given here); linker 3-6 via CH2COCH2; not fully specified (bridges); printed as [6-Aminohexanoyl](1c)*SC(2a)WQC(2a)[Y(2-aminoethoxy)][2-Nal][2-Me-Leu]E(1c)[{d}R]-[NH2]
On to B10, for which the “IC50 (pSTAT3)” value worked out at 8.89 nM.

B11: Compound 124 (peptide)
peptide: [4‑Aminomethyl‑phenylacetyl]SEWQ[Orn][AEF][2Nal][αMeL]E[Dab][3Pal]-NH2
modifications: lactam N-10, 3-6
SMILES: CC(C)C[C@]1(C)NC(=O)[C@H](Cc2ccc3ccccc3c2)NC(=O)[C@H](Cc2ccc(OCCN)cc2)NC(=O)[C@@H]2CCCNC(=O)CC[C@H](NC(=O)[C@H](CO)NC(=O)Cc3ccc(cc3)CNC(=O)CC[C@@H](C(=O)N[C@@H](CCN)C(=O)N[C@@H](Cc3cccnc3)C(N)=O)NC1=O)C(=O)N[C@@H](Cc1c[nH]c3ccccc13)C(=O)N[C@@H](CCC(N)=O)C(=O)N2
For the molecule B11, the “IC50 (pSTAT3)” value stood at 0.117 nM.
